From IntAct's records for PubMed 24510189

B1: mRNA-decapping enzyme 1A (Homo sapiens), Q9NPI6 (parent)
chain: MEALSRAGQEMSLAALKQHDPYITSIADLTGQVALYTFCPKANQWEKTDIEGTLFVYRRSASPYHGFTIVNRLNMHNLVEPVNKDLEFQLHEPFLLYRNASLSIYSIWFYDKNDCHRIAKLMADVVEEETRRSQQAARDKQSPSQANGCSDHRPIDILEMLSRAKDEYERNQMGDSNISSPGLQPSTQLSNLGSTETLEEMPSGSQDKSAPSGHKHLTVEELFGTSLPKEQPAVVGLDSEEMERLPGDASQKEPNSFLPFPFEQLGGAPQSETLGVPSAAHHSVQPEITTPVLITPASITQSNEKHAPTYTIPLSPVLSPTLPAEAPTAQVPPSLPRNSTMMQAVKTTPRQRSPLLNQPVPELSHASLIANQSPFRAPLNVTNTAGTSLPSVDLLQKLRLTPQHDQIQTQPLGKGAMVASFSPAAGQLATPESFIEPPSKTAAARVAASASLSNMVLAPLQSMQQNQDPEVFVQPKVLSSAIPVAGAPLVTATTTAVSSVLLAPSVFQQTVTRSSDLERKASSPSPLTIGTPESQRKPSIILSKSQLQDTLIHLIKNDSSFLSTLHEVYLQVLTKNKDNHNL

Variants of: B1
Conditions: with pnrc2_human PNRC2, Q9NPJ4
Sequence of pnrc2_human PNRC2, Q9NPJ4 (Q9NPJ4 whole entry): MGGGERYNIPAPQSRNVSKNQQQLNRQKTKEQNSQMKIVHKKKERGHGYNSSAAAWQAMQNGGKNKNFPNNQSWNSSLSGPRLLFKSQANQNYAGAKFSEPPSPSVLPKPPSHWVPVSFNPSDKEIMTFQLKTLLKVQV

effect of a mutation on the interaction	Variant
with no effect	MEALSRAGQEMALAALKAADPYITSIADLTGQVALYTFCPKANQWEKTDIEGTLFVYRRSASPYHGFTIVNRLNMHNLVEPVNKDLEFQLHEPFLLYRNASLSIYSIWFYDKNDCHRIAKLMADVVEEETRRSQQAARDKQSPSQANGCSDHRPIDILEMLSRAKDEYERNQMGDSNISSPGLQPSTQLSNLGSTETLEEMPSGSQDKSAPSGHKHLTVEELFGTSLPKEQPAVVGLDSEEMERLPGDASQKEPNSFLPFPFEQLGGAPQSETLGVPSAAHHSVQPEITTPVLITPASITQSNEKHAPTYTIPLSPVLSPTLPAEAPTAQVPPSLPRNSTMMQAVKTTPRQRSPLLNQPVPELSHASLIANQSPFRAPLNVTNTAGTSLPSVDLLQKLRLTPQHDQIQTQPLGKGAMVASFSPAAGQLATPESFIEPPSKTAAARVAASASLSNMVLAPLQSMQQNQDPEVFVQPKVLSSAIPVAGAPLVTATTTAVSSVLLAPSVFQQTVTRSSDLERKASSPSPLTIGTPESQRKPSIILSKSQLQDTLIHLIKNDSSFLSTLHEVYLQVLTKNKDNHNL [S12A;Q18A;H19A]
with no effect	MEALSRAGQEMSLAALKQHDPYITSIADLTGQVALYTFCPKANQWEKTDIEGTLFVYRRSASPYHGFTIVNGLGMHNLVEPVNKDLEFQLHEPFLLYRNASLSIYSIWFYDKNDCHRIAKLMADVVEEETRRSQQAARDKQSPSQANGCSDHRPIDILEMLSRAKDEYERNQMGDSNISSPGLQPSTQLSNLGSTETLEEMPSGSQDKSAPSGHKHLTVEELFGTSLPKEQPAVVGLDSEEMERLPGDASQKEPNSFLPFPFEQLGGAPQSETLGVPSAAHHSVQPEITTPVLITPASITQSNEKHAPTYTIPLSPVLSPTLPAEAPTAQVPPSLPRNSTMMQAVKTTPRQRSPLLNQPVPELSHASLIANQSPFRAPLNVTNTAGTSLPSVDLLQKLRLTPQHDQIQTQPLGKGAMVASFSPAAGQLATPESFIEPPSKTAAARVAASASLSNMVLAPLQSMQQNQDPEVFVQPKVLSSAIPVAGAPLVTATTTAVSSVLLAPSVFQQTVTRSSDLERKASSPSPLTIGTPESQRKPSIILSKSQLQDTLIHLIKNDSSFLSTLHEVYLQVLTKNKDNHNL [R72G;N74G]

Variants of: B1
Conditions: with dcp2_human DCP2, Q8IU60

effect of a mutation on the interaction	Variant
disrupting interaction strength	MEALSRAGQEMALAALKAADPYITSIADLTGQVALYTFCPKANQWEKTDIEGTLFVYRRSASPYHGFTIVNRLNMHNLVEPVNKDLEFQLHEPFLLYRNASLSIYSIWFYDKNDCHRIAKLMADVVEEETRRSQQAARDKQSPSQANGCSDHRPIDILEMLSRAKDEYERNQMGDSNISSPGLQPSTQLSNLGSTETLEEMPSGSQDKSAPSGHKHLTVEELFGTSLPKEQPAVVGLDSEEMERLPGDASQKEPNSFLPFPFEQLGGAPQSETLGVPSAAHHSVQPEITTPVLITPASITQSNEKHAPTYTIPLSPVLSPTLPAEAPTAQVPPSLPRNSTMMQAVKTTPRQRSPLLNQPVPELSHASLIANQSPFRAPLNVTNTAGTSLPSVDLLQKLRLTPQHDQIQTQPLGKGAMVASFSPAAGQLATPESFIEPPSKTAAARVAASASLSNMVLAPLQSMQQNQDPEVFVQPKVLSSAIPVAGAPLVTATTTAVSSVLLAPSVFQQTVTRSSDLERKASSPSPLTIGTPESQRKPSIILSKSQLQDTLIHLIKNDSSFLSTLHEVYLQVLTKNKDNHNL [S12A;Q18A;H19A]
decreasing interaction strength	MEALSRAGQEMSLAALKAADPYITSIADLTGQVALYTFCPKANQWEKTDIEGTLFVYRRSASPYHGFTIVNRLNMHNLVEPVNKDLEFQLHEPFLLYRNASLSIYSIWFYDKNDCHRIAKLMADVVEEETRRSQQAARDKQSPSQANGCSDHRPIDILEMLSRAKDEYERNQMGDSNISSPGLQPSTQLSNLGSTETLEEMPSGSQDKSAPSGHKHLTVEELFGTSLPKEQPAVVGLDSEEMERLPGDASQKEPNSFLPFPFEQLGGAPQSETLGVPSAAHHSVQPEITTPVLITPASITQSNEKHAPTYTIPLSPVLSPTLPAEAPTAQVPPSLPRNSTMMQAVKTTPRQRSPLLNQPVPELSHASLIANQSPFRAPLNVTNTAGTSLPSVDLLQKLRLTPQHDQIQTQPLGKGAMVASFSPAAGQLATPESFIEPPSKTAAARVAASASLSNMVLAPLQSMQQNQDPEVFVQPKVLSSAIPVAGAPLVTATTTAVSSVLLAPSVFQQTVTRSSDLERKASSPSPLTIGTPESQRKPSIILSKSQLQDTLIHLIKNDSSFLSTLHEVYLQVLTKNKDNHNL [Q18A;H19A]
with no effect	MEALSRAGQEMSLAALKQADPYITSIADLTGQVALYTFCPKANQWEKTDIEGTLFVYRRSASPYHGFTIVNRLNMHNLVEPVNKDLEFQLHEPFLLYRNASLSIYSIWFYDKNDCHRIAKLMADVVEEETRRSQQAARDKQSPSQANGCSDHRPIDILEMLSRAKDEYERNQMGDSNISSPGLQPSTQLSNLGSTETLEEMPSGSQDKSAPSGHKHLTVEELFGTSLPKEQPAVVGLDSEEMERLPGDASQKEPNSFLPFPFEQLGGAPQSETLGVPSAAHHSVQPEITTPVLITPASITQSNEKHAPTYTIPLSPVLSPTLPAEAPTAQVPPSLPRNSTMMQAVKTTPRQRSPLLNQPVPELSHASLIANQSPFRAPLNVTNTAGTSLPSVDLLQKLRLTPQHDQIQTQPLGKGAMVASFSPAAGQLATPESFIEPPSKTAAARVAASASLSNMVLAPLQSMQQNQDPEVFVQPKVLSSAIPVAGAPLVTATTTAVSSVLLAPSVFQQTVTRSSDLERKASSPSPLTIGTPESQRKPSIILSKSQLQDTLIHLIKNDSSFLSTLHEVYLQVLTKNKDNHNL [H19A]
decreasing interaction strength	MEALSRAGQEMALAALKQADPYITSIADLTGQVALYTFCPKANQWEKTDIEGTLFVYRRSASPYHGFTIVNRLNMHNLVEPVNKDLEFQLHEPFLLYRNASLSIYSIWFYDKNDCHRIAKLMADVVEEETRRSQQAARDKQSPSQANGCSDHRPIDILEMLSRAKDEYERNQMGDSNISSPGLQPSTQLSNLGSTETLEEMPSGSQDKSAPSGHKHLTVEELFGTSLPKEQPAVVGLDSEEMERLPGDASQKEPNSFLPFPFEQLGGAPQSETLGVPSAAHHSVQPEITTPVLITPASITQSNEKHAPTYTIPLSPVLSPTLPAEAPTAQVPPSLPRNSTMMQAVKTTPRQRSPLLNQPVPELSHASLIANQSPFRAPLNVTNTAGTSLPSVDLLQKLRLTPQHDQIQTQPLGKGAMVASFSPAAGQLATPESFIEPPSKTAAARVAASASLSNMVLAPLQSMQQNQDPEVFVQPKVLSSAIPVAGAPLVTATTTAVSSVLLAPSVFQQTVTRSSDLERKASSPSPLTIGTPESQRKPSIILSKSQLQDTLIHLIKNDSSFLSTLHEVYLQVLTKNKDNHNL [S12A;H19A]
disrupting interaction strength	MEALSRAGQEMSLAALKQHDPYITSIADLTGQVALYTFCPKANQWEKTDIEGTLFVYRRSASPYHGFTIVNRLNMHNLVEPVNKDLEFQLHEPFLLYRNASLSIYSIWFYDKNDCHRIAKLMADVVEEETRRSQQAARDKQSPSQANGCSDHRPIDILEMLSRAKDEYERNQMGDSNISSPGLQPSTQLSNLGSTETLEEMPSGSQDKSAPSGHKHLTVEELFGTSLPKEQPAVVGLDSEEMERLPGDASQKEPNSFLPFPFEQLGGAPQSETLGVPSAAHHSVQPEITTPVLITPASITQSNEKHAPTYTIPLSPVLSPTLPAEAPTAQVPPSLPRNSTMMQAVKTTPRQRSPLLNQPVPELSHASLIANQSPFRAPLNVTNTAGTSLPSVDLLQKLRLTPQHDQIQTQPLGKGAMVASFSPAAGQLATPESFIEPPSKTAAARVAASASLSNMVLAPLQSMQQNQDPEVFVQPKVLSSAIPVAGAPLVTATTTAVSSVLLAPSVFQQTVTRSSDLERKASSPSPLTIGTPESQRKPSIILSKSQLQDTLIHSIKNDSSRLSTSHEVYLQVLTKNKDNHNL [L554S;F561R;L565S]

Variants of: B1
Conditions: with dcp2_human DCP2, Q8IU60
Remark: another data set of the same source

effect of a mutation on the interaction	Variant
with no effect	MEALSRAGQEMSLAALKQHDPYITSIADLTGQVALYTFCPKANQWEKTDIEGTLFVYRRSASPYHGFTIVNRLGMHNLVEPVNKDLEFQLHEPFLLYRNASLSIYSIWFYDKNDCHRIAKLMADVVEEETRRSQQAARDKQSPSQANGCSDHRPIDILEMLSRAKDEYERNQMGDSNISSPGLQPSTQLSNLGSTETLEEMPSGSQDKSAPSGHKHLTVEELFGTSLPKEQPAVVGLDSEEMERLPGDASQKEPNSFLPFPFEQLGGAPQSETLGVPSAAHHSVQPEITTPVLITPASITQSNEKHAPTYTIPLSPVLSPTLPAEAPTAQVPPSLPRNSTMMQAVKTTPRQRSPLLNQPVPELSHASLIANQSPFRAPLNVTNTAGTSLPSVDLLQKLRLTPQHDQIQTQPLGKGAMVASFSPAAGQLATPESFIEPPSKTAAARVAASASLSNMVLAPLQSMQQNQDPEVFVQPKVLSSAIPVAGAPLVTATTTAVSSVLLAPSVFQQTVTRSSDLERKASSPSPLTIGTPESQRKPSIILSKSQLQDTLIHLIKNDSSFLSTLHEVYLQVLTKNKDNHNL [N74G]
disrupting interaction strength	MEALSRAGQEMSLAALKQHDPYITSIADLTGQVALYTFCPKANQWEKTDIEGTLFVYRRSASPYHGFTIVNRLNMHNLVEPVNKDLEFQLHEPFLLYRNASLSIYSIWFYDKNDCHRIAKLMADVVEEETRRSQQAARDKQSPSQANGCSDHRPIDILEMLSRAKDEYERNQMGDSNISSPGLQPSTQLSNLGSTETLEEMPSGSQDKSAPSGHKHLTVEELFGTSLPKEQPAVVGLDSEEMERLPGDASQKEPNSFLPFPFEQLGGAPQSETLGVPSAAHHSVQPEITTPVLITPASITQSNEKHAPTYTIPLSPVLSPTLPAEAPTAQVPPSLPRNSTMMQAVKTTPRQRSPLLNQPVPELSHASLIANQSPFRAPLNVTNTAGTSLPSVDLLQKLRLTPQHDQIQTQPLGKGAMVASFSPAAGQLATPESFIEPPSKTAAARVAASASLSNMVLAPLQSMQQNQDPEVFVQPKVLSSAIPVAGAPLVTATTTAVSSVLLAPSVFQQTVTRSSDLERKASSPSPLTIGTPESQRKPSIILSKSQLQDTLIHSIKNDSSRLSTSHEVYLQVLTKNKDNHNL [L554S;F561R;L565S]

Variants of: B1
Conditions: with dcp2_human DCP2, Q8IU60
Remark: another data set of the same source

effect of a mutation on the interaction	Variant
with no effect	MEAESRAGQEMSLQALKQHDPYITSIADLTGQVALYTFCPKANQWEKTDIEGTLFVYRRSASPYHGFTIVNRLNMHNLVEPVNKDLEFQLHEPFLLYRNASLSIYSIWFYDKNDCHRIAKLMADVVEEETRRSQQAARDKQSPSQANGCSDHRPIDILEMLSRAKDEYERNQMGDSNISSPGLQPSTQLSNLGSTETLEEMPSGSQDKSAPSGHKHLTVEELFGTSLPKEQPAVVGLDSEEMERLPGDASQKEPNSFLPFPFEQLGGAPQSETLGVPSAAHHSVQPEITTPVLITPASITQSNEKHAPTYTIPLSPVLSPTLPAEAPTAQVPPSLPRNSTMMQAVKTTPRQRSPLLNQPVPELSHASLIANQSPFRAPLNVTNTAGTSLPSVDLLQKLRLTPQHDQIQTQPLGKGAMVASFSPAAGQLATPESFIEPPSKTAAARVAASASLSNMVLAPLQSMQQNQDPEVFVQPKVLSSAIPVAGAPLVTATTTAVSSVLLAPSVFQQTVTRSSDLERKASSPSPLTIGTPESQRKPSIILSKSQLQDTLIHLIKNDSSFLSTLHEVYLQVLTKNKDNHNL [L4E;A14Q]
